The labels stand for the following.
B1: IL-5Rα×CD3ε scFv(L)/scFv-Fc (CD3ε arm) (antibody, V domains shown)
VH: EVQLVESGGGLVQPKGSLKLSCAASGFTFNTYAMNWVRQAPGKGLEWVARIRSKYNNYATYYADSVKDRFTISRDDSQSILYLQMNNLKTEDTAMYYCVRHGNFGNSYVSWFAYWGQGTLVTVSS
VL: QAVVTQESALTTSPGETVTLTCRSSTGAVTTSNYANWVQEKPDHLFTGLIGGTNKRAPGVPARFSGSLIGDKAALTITGAQTEDEAIYFCALWYSNLWVFGGGTKLTVL
B2: IL-5Rα×CD3ε IgG analog (CD3ε arm) (antibody, V domains shown)
VH: EVQLVESGGGLVQPKGSLKLSCAASGFTFNTYAMNWVRQAPGKGLEWVARIRSKYNNYATYYADSVKDRFTISRDDSQSILYLQMNNLKTEDTAMYYCVRHGNFGNSYVSWFAYWGQGTLVTVSS
VL: QAVVTQESALTTSPGETVTLTCRSSTGAVTTSNYANWVQEKPDHLFTGLIGGTNKRAPGVPARFSGSLIGDKAALTITGAQTEDEAIYFCALWYSNLWVFGGGTKLTVL
B3: IL-5Rα×CD3ε Diabody-Fc (CD3ε arm) (antibody, V domains shown)
VH: EVQLVESGGGLVQPKGSLKLSCAASGFTFNTYAMNWVRQAPGKGLEWVARIRSKYNNYATYYADSVKDRFTISRDDSQSILYLQMNNLKTEDTAMYYCVRHGNFGNSYVSWFAYWGQGTLVTVSS
VL: QAVVTQESALTTSPGETVTLTCRSSTGAVTTSNYANWVQEKPDHLFTGLIGGTNKRAPGVPARFSGSLIGDKAALTITGAQTEDEAIYFCALWYSNLWVFGGGTKLTVL
B4: IL-5Rα×CD3ε BiTE(L)/scFv-Fc (CD3ε arm) (antibody, V domains shown)
VH: EVQLVESGGGLVQPKGSLKLSCAASGFTFNTYAMNWVRQAPGKGLEWVARIRSKYNNYATYYADSVKDRFTISRDDSQSILYLQMNNLKTEDTAMYYCVRHGNFGNSYVSWFAYWGQGTLVTVSS
VL: QAVVTQESALTTSPGETVTLTCRSSTGAVTTSNYANWVQEKPDHLFTGLIGGTNKRAPGVPARFSGSLIGDKAALTITGAQTEDEAIYFCALWYSNLWVFGGGTKLTVL
B5: 5R65 (antibody, V domains shown)
VH: QVQLVQSGAEVKKPGSSVKVSCKASGYTFTSYWINWVRQAPGQGLEWIGHIYPNKNENYYNHKFKDKATLTVDKSTNTAYMELSSLRSEDTAVYYCTRDYYGRSYYYAMDYWGQGTTLTVSS
VL: DIQMTQSPSTLSASVGDRVTITCKASQNVGTAVAWYQQKPGKAPKLLIYWASTRHTGVPDRFSGSGSGTDFTLTISSLQPDDFATYYCQQFGRYPYTFGSGTKVEVK
B6: 5R65.7 (antibody, V domains shown)
VH: QVQLVQSGAEVKKPGSSVKVSCKASGYTFTSYWINWVRQAPGQGLEWIGHIYPNKNENYYNHKFKDKATLTVDKSTNTAYMELSSLRSEDTAVYYCTREFYGRQYYQAMDYWGQGTTLTVSS
VL: DIQMTQSPSTLSASVGDRVTITCKASQNVGTAVAWYQQKPGKAPKLLIYWASTRHTGVPDRFSGSGSGTDFTLTISSLQPDDFATYYCQQFGRYPYTFGSGTKVEVK
B7: Benralizumab (antibody, V domains shown)
VH: EVQLVQSGAEVKKPGASVKVSCKASGYTFTSYVIHWVRQRPGQGLAWMGYINPYNDGTKYNERFKGKVTITSDRSTSTVYMELSSLRSEDTAVYLCGREGIRYYGLLGDYWGQGTLVTVSS
VL: DIQMTQSPSSLSASVGDRVTITCGTSEDIINYLNWYQQKPGKAPKLLIYHTSRLQSGVPSRFSGSGSGTDFTLTISSLQPEDFATYYCQQGYTLPYTFGQGTKVEIK
B8: IL-5Rα×CD3ε BiTE(L)/scFv-Fc (IL-5Rα arm) (antibody, V domains shown)
VH: QVQLVQSGAEVKKPGSSVKVSCKASGYTFTSYWINWVRQAPGQGLEWIGHIYPNKNENYYNHKFKDKATLTVDKSTNTAYMELSSLRSEDTAVYYCTREFYGRQYYQAMDYWGQGTTLTVSS
VL: DIQMTQSPSTLSASVGDRVTITCKASQNVGTAVAWYQQKPGKAPKLLIYWASTRHTGVPDRFSGSGSGTDFTLTISSLQPDDFATYYCQQFGRYPYTFGSGTKVEVK
B9: IL-5Rα×CD3ε Diabody-Fc (IL-5Rα arm) (antibody, V domains shown)
VH: QVQLVQSGAEVKKPGSSVKVSCKASGYTFTSYWINWVRQAPGQGLEWIGHIYPNKNENYYNHKFKDKATLTVDKSTNTAYMELSSLRSEDTAVYYCTREFYGRQYYQAMDYWGQGTTLTVSS
VL: DIQMTQSPSTLSASVGDRVTITCKASQNVGTAVAWYQQKPGKAPKLLIYWASTRHTGVPDRFSGSGSGTDFTLTISSLQPDDFATYYCQQFGRYPYTFGSGTKVEVK
B10: IL-5Rα×CD3ε scFv(L)/scFv-Fc (IL-5Rα arm) (antibody, V domains shown)
VH: QVQLVQSGAEVKKPGSSVKVSCKASGYTFTSYWINWVRQAPGQGLEWIGHIYPNKNENYYNHKFKDKATLTVDKSTNTAYMELSSLRSEDTAVYYCTREFYGRQYYQAMDYWGQGTTLTVSS
VL: DIQMTQSPSTLSASVGDRVTITCKASQNVGTAVAWYQQKPGKAPKLLIYWASTRHTGVPDRFSGSGSGTDFTLTISSLQPDDFATYYCQQFGRYPYTFGSGTKVEVK
B11: IL-5Rα×CD3ε IgG analog (IL-5Rα arm) (antibody, V domains shown)
VH: QVQLVQSGAEVKKPGSSVKVSCKASGYTFTSYWINWVRQAPGQGLEWIGHIYPNKNENYYNHKFKDKATLTVDKSTNTAYMELSSLRSEDTAVYYCTREFYGRQYYQAMDYWGQGTTLTVSS
VL: DIQMTQSPSTLSASVGDRVTITCKASQNVGTAVAWYQQKPGKAPKLLIYWASTRHTGVPDRFSGSGSGTDFTLTISSLQPDDFATYYCQQFGRYPYTFGSGTKVEVK

Chain of CD3ε (P07766 23-207): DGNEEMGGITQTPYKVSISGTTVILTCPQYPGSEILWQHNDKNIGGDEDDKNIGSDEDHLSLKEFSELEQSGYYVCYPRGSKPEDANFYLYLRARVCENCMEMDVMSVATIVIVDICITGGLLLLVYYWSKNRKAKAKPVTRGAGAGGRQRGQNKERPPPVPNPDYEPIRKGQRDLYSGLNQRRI

One assay has as its target CD3ε (human, UniProt P07766). Nature of the assay: BLI.
By Kd is commonly meant the free concentration of one partner at which half of the binding sites on the other are occupied at equilibrium, for simple one-to-one binding. A high value points to weaker binding. B1 yielded a Kd of 3.61 nM. Still for that read-out and setting: to B2 belongs 1.71 nM; to B3, 8.41 nM; to B4, 4.62 nM.

The next assay deals with T1, IL-5Rα (human, UniProt Q01344).
T1 chain: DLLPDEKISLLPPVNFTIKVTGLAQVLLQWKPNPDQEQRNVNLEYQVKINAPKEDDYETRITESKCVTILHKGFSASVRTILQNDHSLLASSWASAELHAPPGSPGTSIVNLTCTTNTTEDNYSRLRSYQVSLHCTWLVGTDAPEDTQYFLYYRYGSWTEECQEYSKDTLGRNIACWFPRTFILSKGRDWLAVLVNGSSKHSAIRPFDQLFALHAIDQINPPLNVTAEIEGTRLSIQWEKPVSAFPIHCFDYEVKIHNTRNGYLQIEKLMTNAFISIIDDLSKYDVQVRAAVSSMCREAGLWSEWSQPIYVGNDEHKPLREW
Assay: not given
Regarding B5, binding was characterised by a dissociation constant (Kd) of 14.5 nM. B6 gave a Kd of 4.64 nM. The same measure, in the same setting: the same measure for B7: 26.8 nM.

In a further assay the target is T1, IL-5Rα. Nature of the assay: BLI. (In general: BLI is a label-free optical method that tracks binding on a fibre tip over time.)
B8 returned a Kd of 22.9 nM. On the same count and under the same terms, to B9 belongs 123 nM; to B10, 59.8 nM; to B11, 30.5 nM.

For the origin of these results see patent publication US20260308264 (published 2026).
